Laboratory results reported in patent publication US20220275095A1 (SURROZEN OPERATING, published 2022).

Key:
[1] = target: T1, human Fzd8 cysteine rich domain (CRD) (human, UniProt Q9H461 28-153, limits assumed); assay: BLI, Fab on captured biotinylated Fzd CRD; *** = 100 nM > KD >= 10 nM
T1 construct: domain: cysteine rich domain (CRD); C-terminally biotinylated in the BLI assay; also called hFzd8; hFzd8 (CRD)
T1 sequence (looked up): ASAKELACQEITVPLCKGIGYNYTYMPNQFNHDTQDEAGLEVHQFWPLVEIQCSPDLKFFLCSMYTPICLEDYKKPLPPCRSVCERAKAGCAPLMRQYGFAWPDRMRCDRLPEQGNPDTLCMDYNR
Description: (§1) C-terminal biotinylated Fzd CRD recombinant protein was diluted to 20 nM in the running buffer (PBS, 0.05% Tween-20, 0.5% BSA, pH 7.2) and captured to the SA biosensor until coupling length reached 0.2 nm. Following capture of the Fzd CRD, the SA biosensor with captured biotinylated-Fzd CRD was dipped into wells containing the relevant antibody fragment at 7 different concentrations (0, 1.37, 4.12, 12.4, 37, 111.1, 333.3, 1000 nM) in running buffer, plus a well with only running buffer as a reference channel. KD was determined by global fitting, 1:1 binding model according to manufacturer recommended settings.

human Fzd6 CRD = target: T2, human Fzd6 CRD (human, UniProt O60353 19-134, limits assumed); assay: BLI
T2 construct: domain: cysteine rich domain (CRD)
T2 sequence (looked up): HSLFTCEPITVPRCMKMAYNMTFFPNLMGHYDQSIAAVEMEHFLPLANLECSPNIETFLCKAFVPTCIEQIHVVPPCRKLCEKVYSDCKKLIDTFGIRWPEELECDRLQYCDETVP
Description: as §1

mouse Fzd7 CRD = mouse Fzd7 CRD (mouse, UniProt Q61090 33-165); assay: BLI
Description: as §1

mouse Fzd3 CRD = target: T3, mouse Fzd3 CRD (mouse, UniProt Q61086 23-138, limits assumed); assay: BLI
T3 construct: domain: cysteine rich domain (CRD)
T3 sequence (looked up): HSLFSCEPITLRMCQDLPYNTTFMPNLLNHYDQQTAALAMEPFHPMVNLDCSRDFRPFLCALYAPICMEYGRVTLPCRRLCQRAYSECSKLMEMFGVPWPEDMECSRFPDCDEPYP
Description: as §1

human Fzd1 CRD = human Fzd1 CRD (human, UniProt Q9UP38 105-232); assay: BLI
Description: as §1

human Fzd2 CRD = human Fzd2 CRD (human, UniProt Q14332 24-155); assay: BLI
Description: as §1

mouse Fzd10 CRD = target: T4, mouse Fzd10 CRD (mouse, UniProt Q8BKG4 22-153, limits assumed); assay: BLI
T4 construct: domain: cysteine rich domain (CRD)
T4 sequence (looked up): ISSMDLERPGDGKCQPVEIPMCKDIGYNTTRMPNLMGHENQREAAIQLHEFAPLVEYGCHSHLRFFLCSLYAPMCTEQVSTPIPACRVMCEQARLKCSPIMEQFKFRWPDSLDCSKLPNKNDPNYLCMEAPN
Description: as §1

mouse Fzd6 CRD = target: T5, mouse Fzd6 CRD (mouse, UniProt Q61089 19-134, limits assumed); assay: BLI
T5 construct: domain: cysteine rich domain (CRD)
T5 sequence (looked up): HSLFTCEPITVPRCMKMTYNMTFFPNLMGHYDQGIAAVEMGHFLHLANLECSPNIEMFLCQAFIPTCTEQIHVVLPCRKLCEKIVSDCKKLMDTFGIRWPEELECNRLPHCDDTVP
Description: as §1

human Fzd10 CRD = target: T6, human Fzd10 CRD (human, UniProt Q9ULW2 21-152, limits assumed); assay: BLI
T6 construct: domain: cysteine rich domain (CRD)
T6 sequence (looked up): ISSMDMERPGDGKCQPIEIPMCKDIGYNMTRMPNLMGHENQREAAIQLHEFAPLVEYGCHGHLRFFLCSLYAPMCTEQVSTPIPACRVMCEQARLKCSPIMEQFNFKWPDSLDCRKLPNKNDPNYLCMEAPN
Description: as §1

mouse Fzd4 CRD = target: T7, mouse Fzd4 CRD (mouse, UniProt Q61088 37-163, limits assumed); assay: BLI
T7 construct: domain: cysteine rich domain (CRD)
T7 sequence (looked up): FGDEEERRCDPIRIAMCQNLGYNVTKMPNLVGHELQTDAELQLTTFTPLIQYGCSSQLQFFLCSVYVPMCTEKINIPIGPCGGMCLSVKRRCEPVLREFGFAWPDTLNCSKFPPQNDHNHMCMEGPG
Description: as §1

human Fzd4 CRD = target: T8, human Fzd4 CRD (human, UniProt Q9ULV1 37-163, limits assumed); assay: BLI
T8 construct: domain: cysteine rich domain (CRD)
T8 sequence (looked up): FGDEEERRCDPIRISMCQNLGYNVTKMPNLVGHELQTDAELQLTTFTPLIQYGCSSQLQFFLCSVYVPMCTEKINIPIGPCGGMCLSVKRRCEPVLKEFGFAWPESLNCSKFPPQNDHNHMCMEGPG
Description: as §1

mouse Fzd9 CRD = target: T9, mouse Fzd9 CRD (mouse, UniProt Q9R216 24-158, limits assumed); assay: BLI
T9 construct: domain: cysteine rich domain (CRD)
T9 sequence (looked up): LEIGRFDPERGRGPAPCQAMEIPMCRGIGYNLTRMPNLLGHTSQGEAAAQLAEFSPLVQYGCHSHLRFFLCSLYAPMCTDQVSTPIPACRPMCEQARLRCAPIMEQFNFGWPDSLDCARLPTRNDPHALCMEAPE
Description: as §1

mouse Fzd2 CRD = mouse Fzd2 CRD (mouse, UniProt Q9JIP6 29-160); assay: BLI
Description: as §1

human Fzd5 CRD = target: T10, human Fzd5 CRD (human, UniProt Q13467 27-152, limits assumed); assay: BLI
T10 construct: domain: cysteine rich domain (CRD)
T10 sequence (looked up): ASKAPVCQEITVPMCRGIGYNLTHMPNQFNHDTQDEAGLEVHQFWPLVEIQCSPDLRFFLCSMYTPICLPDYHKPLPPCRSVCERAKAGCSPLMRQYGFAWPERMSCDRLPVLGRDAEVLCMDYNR
Description: as §1

mouse Fzd1 CRD = mouse Fzd1 CRD (mouse, UniProt O70421 100-227); assay: BLI
Description: as §1

human Fzd7 CRD = human Fzd7 CRD (human, UniProt O75084 33-165); assay: BLI
Description: as §1

human Fzd9 CRD = target: T11, human Fzd9 CRD (human, UniProt O00144 23-157, limits assumed); assay: BLI
T11 construct: domain: cysteine rich domain (CRD)
T11 sequence (looked up): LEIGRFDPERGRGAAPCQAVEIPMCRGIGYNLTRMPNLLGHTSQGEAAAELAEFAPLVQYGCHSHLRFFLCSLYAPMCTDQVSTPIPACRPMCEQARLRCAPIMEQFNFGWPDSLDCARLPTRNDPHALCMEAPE
Description: as §1

mouse Fzd5 CRD = target: T12, mouse Fzd5 CRD (mouse, UniProt Q9EQD0 27-152, limits assumed); assay: BLI
T12 construct: domain: cysteine rich domain (CRD)
T12 sequence (looked up): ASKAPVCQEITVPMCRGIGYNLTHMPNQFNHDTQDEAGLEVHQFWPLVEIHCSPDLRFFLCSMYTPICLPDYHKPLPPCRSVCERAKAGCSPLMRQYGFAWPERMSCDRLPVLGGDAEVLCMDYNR
Description: as §1

human Fzd3 CRD = target: T13, human Fzd3 CRD (human, UniProt Q9NPG1 23-138, limits assumed); assay: BLI
T13 construct: domain: cysteine rich domain (CRD)
T13 sequence (looked up): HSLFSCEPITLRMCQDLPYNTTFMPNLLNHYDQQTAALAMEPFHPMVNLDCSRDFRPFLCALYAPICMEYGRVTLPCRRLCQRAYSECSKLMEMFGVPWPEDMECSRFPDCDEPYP
Description: as §1

human Fzd2 hinge region = target: T14, human Fzd2 hinge region (human, UniProt Q14332 150-201); assay: phage ELISA
T14 construct: also called hFzd2L; 2L

Fzd2 CRD = Fzd2 CRD (UniProt Q14332 24-155); assay: BLI (Octet Red 96), biotinylated Fzd2 CRD on streptavidin biosensor
Description: Binding kinetics of monospecific Fzd binders to either (CRD) or the extracellular hinge region (hinge) was determined by bio-layer interferometry (BLI) using Octet Red 96 (PALL ForteBio, Fremont, Calif.) instruments at 30° C., 1000 rpm with streptavidin (SA) biosensors. N-terminal biotinylated Fzd1 or Fzd2 CRD and Fzd1 or Fzd 2 hinge proteins were captured on the SA biosensor. Following capture of biotinylated-Fzd1 or Fzd2, the SA biosensor with captured […] was dipped into wells containing the relevant antibodies at 7 different concentrations in running buffer plus a well with only running buffer as a reference channel. KD was determined by global fitting. As shown in FIGS. 4A-4H these antibody fusion proteins only bound to either Fzd1 or Fzd2 protein with the hinge region, and not to the CRD domains alone.

B1: 027S-E5 Fab (Fab, V domains shown)
VH: QVQLEQSGAEVKKPGASVKVSCKASGGTFSSYAISWVRQAPGQGLEWMGMINPSGGSTTYAQKFQGRVTMTRDTSTSTVYMELSSLRSEDTAVYYCARQAGLHCSSTSCYLGNWFDPWGQGTLVTVSS
VL: DIQMTQSPSSLSASVGDRVTITCRASQGITKSLAWYQQKPGKAPKLLIYAASNLATGVPSRFSGSGSGTDFTLTISSLQPEDFATYYCQQYNTFPITFGQGTRLEIKR
notes: Fab chains as printed, heavy chain with hexa-histidine tag; also called 027S-E05
B1 was tested, and the KD [1] was 10 to 100 nM, the binding result (human Fzd6 CRD) was “no binding (tested: 1000 nM)” and the binding result (mouse Fzd7 CRD) was “no binding (tested: 1000 nM)”. B1: no binding (tested: 1000 nM) (mouse Fzd3 CRD); no binding (tested: 1000 nM) (human Fzd1 CRD); no binding (tested: 1000 nM) (human Fzd2 CRD). B1: no binding (tested: 1000 nM) (mouse Fzd10 CRD); no binding (tested: 1000 nM) (mouse Fzd6 CRD); no binding (tested: 1000 nM) (human Fzd10 CRD). B1: no binding (tested: 1000 nM) (mouse Fzd4 CRD); no binding (tested: 1000 nM) (human Fzd4 CRD); no binding (tested: 1000 nM) (mouse Fzd9 CRD). B1: no binding (tested: 1000 nM) (mouse Fzd2 CRD); no binding (tested: 1000 nM) (human Fzd5 CRD); no binding (tested: 1000 nM) (mouse Fzd1 CRD). B1: no binding (tested: 1000 nM) (human Fzd7 CRD); no binding (tested: 1000 nM) (human Fzd9 CRD); no binding (tested: 1000 nM) (mouse Fzd5 CRD). B1: no binding (tested: 1000 nM) (human Fzd3 CRD).

B2: 031S-B02 (antibody, V domains shown)
VH: EVQLLESGGGLVQPGGSLRLSCAASGFTFSSYWMSWVRQAPGKGLEWVSAIGGSGANAYYADSVKGRFTISRDNSKNTLYLQMNSLRAEDTAVYYCVRDTNWAFDLWGQGTMVTVSS
VL: EIVMTQSPATLSVSPGERATLSCRASQSVSGSYLAWYQQKPGQAPRLLIYGASTRATGIPARFSGSGSGTEFTLTISSLQSEDFAVYYCQQYGSSPLTFGQGTKVEIK
notes: also called 31SB2
B2: binds (human Fzd2 hinge region).

B3: 031S-B02 Fab (Fab, V domains shown)
VH: EVQLLESGGGLVQPGGSLRLSCAASGFTFSSYWMSWVRQAPGKGLEWVSAIGGSGANAYYADSVKGRFTISRDNSKNTLYLQMNSLRAEDTAVYYCVRDTNWAFDLWGQGTMVTVSS
VL: EIVMTQSPATLSVSPGERATLSCRASQSVSGSYLAWYQQKPGQAPRLLIYGASTRATGIPARFSGSGSGTEFTLTISSLQSEDFAVYYCQQYGSSPLTFGQGTKVEIK
notes: also called 31SB2
B3: no binding (Fzd2 CRD).
